This note sets out measurements from patent US7071300 (dated 2006).

For orientation: IC50 means the concentration at which inhibition is half-maximal. A high value points to weaker potency.

For experiment [1], the target named is T1, IGF-1 (human, UniProt P05019). Put plainly: competition, IGF-1 phage binding to IGFBP-3.
Experiment [2] concerns the target T1, IGF-1. Briefly: competition, 125I-IGF-1 binding to MCF-7 cells.
The target in experiment [3] is T1, IGF-1. Briefly: competition, IGF-1 phage binding to IGFBP-1.

T1 sequence (P05019 49-118): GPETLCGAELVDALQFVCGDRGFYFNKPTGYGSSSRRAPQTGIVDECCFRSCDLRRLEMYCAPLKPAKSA

Regarding RNCFESVAALRRCMYG [F1-1], the IC50 is 2.93 µM with IGF-1 [1], 5.12 µM with IGF-1 [2] and 1.4 µM with IGF-1 [3].
On to FECLTSVEALRGCMYG [F1-3], for which the results for the IC50 with IGF-1 [1], with IGF-1 [2] and with IGF-1 [3] were 12.8 µM, 45.7 µM and 11.7 µM, respectively.
In the case of MDCLASVEALKWCMYG [F1-2], the IC50 with IGF-1 [1] is 9.2 µM; with IGF-1 [2], 15.3 µM; with IGF-1 [3], 15.5 µM.
